Residue numbers refer to the chain shown, from its start.

In assay [1] the target is T1, mouse NRP2 I407V on transfected Expi293 cells (Mouse, UniProt O35375 21-931).
T1 construct: whole, on cells
T1 sequence (looked up): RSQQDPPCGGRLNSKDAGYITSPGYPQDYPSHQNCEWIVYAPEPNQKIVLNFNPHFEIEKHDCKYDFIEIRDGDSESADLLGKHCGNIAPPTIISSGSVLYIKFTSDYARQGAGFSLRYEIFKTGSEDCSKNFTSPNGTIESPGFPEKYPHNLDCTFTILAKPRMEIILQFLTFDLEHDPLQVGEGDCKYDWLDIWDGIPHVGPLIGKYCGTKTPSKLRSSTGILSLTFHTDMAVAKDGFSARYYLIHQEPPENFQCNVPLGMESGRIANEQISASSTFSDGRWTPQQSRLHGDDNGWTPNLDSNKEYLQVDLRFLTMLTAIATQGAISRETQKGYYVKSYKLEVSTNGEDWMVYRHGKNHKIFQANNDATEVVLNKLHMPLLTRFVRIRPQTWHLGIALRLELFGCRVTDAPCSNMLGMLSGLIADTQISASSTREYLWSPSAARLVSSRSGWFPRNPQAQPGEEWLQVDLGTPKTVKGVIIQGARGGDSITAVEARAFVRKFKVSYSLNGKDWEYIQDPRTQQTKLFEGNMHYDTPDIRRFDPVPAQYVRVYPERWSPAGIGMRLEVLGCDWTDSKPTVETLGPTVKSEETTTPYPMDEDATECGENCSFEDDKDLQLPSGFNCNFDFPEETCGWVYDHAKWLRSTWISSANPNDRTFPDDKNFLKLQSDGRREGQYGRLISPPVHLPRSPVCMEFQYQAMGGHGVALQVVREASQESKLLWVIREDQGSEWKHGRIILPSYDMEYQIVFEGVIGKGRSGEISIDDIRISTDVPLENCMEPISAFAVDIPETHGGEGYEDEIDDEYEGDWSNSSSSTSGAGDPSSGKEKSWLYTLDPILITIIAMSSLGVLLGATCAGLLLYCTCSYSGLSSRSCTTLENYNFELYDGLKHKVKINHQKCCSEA
As to the kind of experiment: flow cytometry, aNRP2-10v10 at 10 nM on transfected Expi293 cells gated on live, single, NRP2 expressing cells [panel 11B]. As for the experimental part: (§1) FIGS. 11A-11B show the measurement of antibody binding to Expi293 cells over-expressing NRP2. […] Gating for NRP2 over-expressing cells is shown.
(§2) Human NRP2a (version 2; see Table N1) and mouse NRP2v2 cDNAs were obtained from Origene. […] Human and mouse NRP2, expression vectors, along with expression vectors encoding all 6 mutants were transfected into Expi293 cells at 1 million cells/mL, by standard techniques. Approximately 40 hours post transfection cells were co-stained with aNRP2-10v10, and a species agnostic anti-NRP2 a1 specific binding antibody.
On the technique in general: In flow cytometry, cells or beads pass a laser one at a time.

Assay [2] deals with T2, mouse NRP2 M400A on transfected Expi293 cells (Mouse, UniProt O35375 21-931).
T2 construct: whole, on cells
T2 sequence (looked up): T1 sequence (looked up) with M380A, V387I
The assay is described as above. As for the experimental part: as §1, §2

For assay [3], the target named is T3, Cynomolgus NRP2 (aa23-854) with C-terminal Fc-tag (cynomolgus monkey).
T3 construct: range 23-854; sensorgrams fitted to a bivalent analyte model; also called Cynomolgus NRP2 antigen protein
As to the kind of experiment: SPR (ProteOn XPR36), antibody captured on anti-human Fab-kappa, cyno NRP2-Fc as analyte, bivalent analyte fit. As for the experimental part:
Anti-NRP2 antibody binding and affinity measurements. […] SPR experiments were conducted on a Bio-Rad ProteOn XPR36 Protein Interaction Array instrument. Biotinylated anti-human antibody (ThermoFisher Cat #7103302100) was immobilized on ProteOn NLC sensor chips. Anti-NRP2 antibodies were subsequently flowed over and captured by the anti-human antibody. Cynomolgus NRP2 antigen protein was flowed over the captured antibody at varying concentrations (150, 50, 16.67, 5.56, 1.85 nM). The sensor chip surface was regenerated between each analyte run to remove anti-NRP2 antibodies and NRP2 protein. Data was double referenced against a surface with no anti-NRP2 antibody captured (immobilized anti-human antibody only) and a buffer only blank. Affinity constants were derived by globally fitting sensograms to a bivalent analyte interaction model in the ProteOn manager software. For each anti-NRP2 antibody, data from the multiple NRP2 concentrations was fit as a single data set with dissociation rate constant (kd), association rate constant (kₐ) and Rₘₐₓ values as global parameters. The reported binding affinity is the equilibrium dissociation constant (KD) calculated from kd/kₐ. [0681] Running buffer: 50 mM HEPES, 300 mM NaCl, 5 mM CaCl₂, 0.005% Tween-20, pH 7.4 [0682] Immobilized antibody: CaptureSelect Human Fab-kappa Kinetics Biotin Conjugate, Thermo Fisher Cat #7103302100 [0683] Antigen: Cynomolgus NRP2 (aa23-854) with C-terminal Fc-tag [0684] Regeneration buffer: 10 mM glycine pH 2.0

B1: aNRP2-10v10 (antibody, V domains shown)
VH: EVQLVQSGAEVKKPGATVKISCKVSGFNIKDYYVHWVQQAPGKGLEWMGRIDVEDDETKYAPKFQGRVTITADTSTDTAYMELSSLRSEDTAVYYCATPIYGAREAWFAYWGQGTLVTVSS
VL: DIQMTQSPSSLSASVGDRVTITCTASSSVSSSYLHWYQQKPGKAPKLLIYRTSNLASGVPSRFSGSGSGTDFTLTISSLQPEDFATYYCHQYYRSPPTFGGGTKVEIK
In the case of B1, the binding result in assay [1] and in assay [2] was “no binding (tested: 10 nM)” in each case. The same molecule returned a Kd in assay [3] of 0.032 nM.
